US20240189442

What was measured:
SEQ ID NO: 50 = test system: T1, SEQ ID NO: 50
T1 sequence: LSGRSDNH

SEQ ID NO: 51 = test system: T2, SEQ ID NO: 51
T2 sequence: SGRSA

SEQ ID NO: 52 = test system: T3, SEQ ID NO: 52
T3 sequence: LGGSGRSANAILE

SEQ ID NO: 53 = test system: T4, SEQ ID NO: 53
T4 sequence: LGGSGRNAQVRLE

SEQ ID NO: 54 = test system: T5, SEQ ID NO: 54
T5 sequence: GSGRNAQV

Sequence of Tissue-type Plasminogen Activator (tPA) (P00750 36-562): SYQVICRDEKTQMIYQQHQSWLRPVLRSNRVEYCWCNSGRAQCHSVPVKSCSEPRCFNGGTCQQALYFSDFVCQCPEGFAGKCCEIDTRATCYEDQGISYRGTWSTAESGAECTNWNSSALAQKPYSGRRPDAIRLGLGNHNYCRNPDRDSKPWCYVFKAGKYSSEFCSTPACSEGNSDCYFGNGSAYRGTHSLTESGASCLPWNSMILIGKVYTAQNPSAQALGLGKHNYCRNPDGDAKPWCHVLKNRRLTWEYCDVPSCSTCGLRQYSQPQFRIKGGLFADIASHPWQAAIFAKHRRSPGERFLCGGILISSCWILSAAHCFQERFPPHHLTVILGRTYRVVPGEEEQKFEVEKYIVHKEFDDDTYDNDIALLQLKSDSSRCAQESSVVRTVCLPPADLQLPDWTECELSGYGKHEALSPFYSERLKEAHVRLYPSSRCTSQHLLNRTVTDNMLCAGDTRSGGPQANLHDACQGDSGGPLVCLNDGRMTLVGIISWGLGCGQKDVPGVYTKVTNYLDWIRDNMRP

Substance | Fold of Increase, fluorescence intensity; tPA digestion at 2.25 × 10^-2 mg/mL (SEQ ID NO: 50) | Fold of Increase, fluorescence intensity; tPA digestion at 7.5 × 10^-3 mg/mL (SEQ ID NO: 50) | Fold of Increase, fluorescence intensity; tPA digestion at 2.25 × 10^-2 mg/mL (SEQ ID NO: 51) | Fold of Increase, fluorescence intensity; tPA digestion at 7.5 × 10^-3 mg/mL (SEQ ID NO: 51) | Fold of Increase, fluorescence intensity; tPA digestion at 2.25 × 10^-2 mg/mL (SEQ ID NO: 52) | Fold of Increase, fluorescence intensity; tPA digestion at 7.5 × 10^-3 mg/mL (SEQ ID NO: 52) | Fold of Increase, fluorescence intensity; tPA digestion at 2.25 × 10^-2 mg/mL (SEQ ID NO: 53) | Fold of Increase, fluorescence intensity; tPA digestion at 7.5 × 10^-3 mg/mL (SEQ ID NO: 53) | Fold of Increase, fluorescence intensity; tPA digestion at 2.25 × 10^-2 mg/mL (SEQ ID NO: 54) | Fold of Increase, fluorescence intensity; tPA digestion at 7.5 × 10^-3 mg/mL (SEQ ID NO: 54) | Fold of Increase, fluorescence intensity (FRET cleavage assay) (SEQ ID NO: 50) | Time to Reach Plateau (hr), fluorescence intensity (FRET cleavage assay) (SEQ ID NO: 50) | Fold of Increase, fluorescence intensity (FRET cleavage assay) (SEQ ID NO: 51) | Time to Reach Plateau (hr), fluorescence intensity (FRET cleavage assay) (SEQ ID NO: 51) | Fold of Increase, fluorescence intensity (FRET cleavage assay) (SEQ ID NO: 52) | Time to Reach Plateau (hr), fluorescence intensity (FRET cleavage assay) (SEQ ID NO: 52) | Fold of Increase, fluorescence intensity (FRET cleavage assay) (SEQ ID NO: 53) | Time to Reach Plateau (hr), fluorescence intensity (FRET cleavage assay) (SEQ ID NO: 53) | Fold of Increase, fluorescence intensity (FRET cleavage assay) (SEQ ID NO: 54) | Time to Reach Plateau (hr), fluorescence intensity (FRET cleavage assay) (SEQ ID NO: 54)
Tissue-type Plasminogen Activator (tPA) | 1.1 fold | 0.63 fold | 5.4 fold | 2.1 fold | 2.1 fold | 1.2 fold | 1.3 fold | 0.73 fold | 2.6 fold | 0.91 fold | – | – | – | – | – | – | – | – | – | –
Urokinase-type Plasminogen Activator (uPA) | – | – | – | – | – | – | – | – | – | – | 4.9 fold | 1.7 h | 9.6 fold | 1.8 h | 3.1 fold | 1.4 h | 3 fold | 1.6 h | 4.7 fold | 1.4 h
